Assays:
[1] = test system: HeLa Kyoto; assay: melting temperature (median over replicates), in situ; higher = more thermally stable
[2] = test system: HeLa Kyoto; assay: solubility in G1/S (NP-40 vs SDS abundance) (log2 ratio); higher = more soluble; conditions: cell cycle stage: G1/S
[3] = test system: HeLa Kyoto; assay: solubility change mitosis vs G1/S (difference of NP-40 vs SDS log2 ratios) (log2 ratio difference); higher = more soluble in mitosis
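Wherever melting temperature (median over replicates), in situ is given: HeLa Kyoto cells synchronized by double thymidine or nocodazole block, proteins quantified by TMT10plex mass spectrometry, three independent biological replicates.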
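Wherever solubility change mitosis vs G1/S (difference of NP-40 vs SDS log2 ratios) is given: synchronized HeLa Kyoto cells (double thymidine block for G1/S, nocodazole release for mitosis), protein amounts in NP-40 versus SDS lysates quantified by mass spectrometry, three biological replicates.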
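Wherever solubility in G1/S (NP-40 vs SDS abundance) is given: HeLa Kyoto cells arrested at G1/S by double thymidine block, proteins quantified by TMT10plex mass spectrometry in mild NP-40 versus SDS extracts, three biological replicates.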

Chain of CSNK1G1 (chain, as listed by the source): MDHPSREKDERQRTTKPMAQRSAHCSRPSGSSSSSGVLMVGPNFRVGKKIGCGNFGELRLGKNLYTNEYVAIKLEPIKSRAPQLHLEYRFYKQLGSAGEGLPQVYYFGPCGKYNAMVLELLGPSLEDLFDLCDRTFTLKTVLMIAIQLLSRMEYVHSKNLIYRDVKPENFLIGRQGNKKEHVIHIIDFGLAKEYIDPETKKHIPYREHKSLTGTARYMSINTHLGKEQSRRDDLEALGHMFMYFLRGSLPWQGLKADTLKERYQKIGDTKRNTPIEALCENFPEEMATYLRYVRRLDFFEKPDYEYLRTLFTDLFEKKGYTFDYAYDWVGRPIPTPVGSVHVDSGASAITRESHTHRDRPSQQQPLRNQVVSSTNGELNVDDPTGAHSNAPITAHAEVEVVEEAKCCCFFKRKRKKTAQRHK

MLFKLLQRQTYTCLSHRYGLYVCFLGVVVTIVSAFQFGEVVLEWSRDQYHVLFDSYRDNIAGKSFQNRLCLPMPIDVVYTWVNGTDLELLKELQQVREQMEEEQKAMREILGKNTTEPTKKSEKQLECLLTHCIKVPMLVLDPALPANITLKDLPSLYPSFHSASDIFNVAKPKNPSTNVSVVVFDSTKDVEDAHSGLLKGNSRQTVWRGYLTTDKEVPGLVLMQDLAFLSGFPPTFKETNQLKTKLPENLSSKVKLLQLYSEASVALLKLNNPKDFQELNKQTKKNMTIDGKELTISPAYLLWDLSAISQSKQDEDISASRFEDNEELRYSLRSIERHAPWVRNIFIVTNGQIPSWLNLDNPRVTIVTHQDVFRNLSHLPTFSSPAIESHIHRIEGLSQKFIYLNDDVMFGKDVWPDDFYSHSKGQKVYLTWPVPNCAEGCPGSWIKDGYCDKACNNSACDWDGGDCSGNSGGSRYIAGGGGTGSIGVGQPWQFGGGINSVSYCNQGCANSWLADKFCDQACNVLSCGFDAGDCGQDHFHELYKVILLPNQTHYIIPKGECLPYFSFAEVAKRGVEGAYSDNPIIRHASIANKWKTIHLIMHSGMNATTIHFNLTFQNTNDEEFKMQITVEVDTREGPKLNSTAQKGYENLVSPITLLPEAEILFEDIPKEKRFPKFKRHDVNSTRRAQEEVKIPLVNISLLPKDAQLSLNTLDLQLEHGDITLKGYNLSKSALLRSFLMNSQHAKIKNQAIITDETNDSLVAPQEKQVHKSILPNSLGVSERLQRLTFPAVSVKVNGHDQGQNPPLDLETTARFRVETHTQKTIGGNVTKEKPPSLIVPLESQMTKEKKITGKEKENSRMEENAENHIGVTEVLLGRKLQHYTDSYLGFLPWEKKKYFQDLLDEEESLKTQLAYFTDSKNTGRQLKDTFADSLRYVNKILNSKFGFTSRKVPAHMPHMIDRIVMQELQDMFPEEFDKTSFHKVRHSEDMQFAFSYFYYLMSAVQPLNISQVFDEVDTDQSGVLSDREIRTLATRIHELPLSLQDLTGLEHMLINCSKMLPADITQLNNIPPTQESYYDPNLPPVTKSLVTNCKPVTDKIHKAYKDKNKYRFEIMGEEEIAFKMIRTNVSHVVGQLDDIRKNPRKFVCLNDNIDHNHKDAQTVKAVLRDFYESMFPIPSQFELPREYRNRFLHMHELQEWRAYRDKLKFWTHCVLATLIMFTIFSFFAEQLIALKRKIFPRRRIHKEASPNRIRV [GNPTAB]
melting temperature ([1]; cell cycle stage: G1/S): 53.9 °C
melting temperature ([1]; cell cycle stage: mitosis): 54.1 °C
solubility in G1/S (log2) [2]: 0.263
solubility change mitosis (log2) [3]: -0.00222

MMWQKYAGSRRSMPLGARILFHGVFYAGGFAIVYYLIQKFHSRALYYKLAVEQLQSHPEAQEALGPPLNIHYLKLIDRENFVDIVDAKLKIPVSGSKSEGLLYVHSSRGGPFQRWHLDEVFLELKDGQQIPVFKLSGENGDEVKKE [COA1]
melting temperature ([1]; cell cycle stage: G1/S): 54.7 °C
melting temperature ([1]; cell cycle stage: mitosis): 55.7 °C
solubility in G1/S (log2) [2]: 0.0268
solubility change mitosis (log2) [3]: 0.0489

MAAAGARPVELGFAESAPAWRLRSEQFPSKVGGRPAWLGAAGLPGPQALACELCGRPLSFLLQVYAPLPGRPDAFHRCIFLFCCREQPCCAGLRVFRNQLPRKNDFYSYEPPSENPPPETGESVCLQLKSGAHLCRVCGCLGPKTCSRCHKAYYCSKEHQTLDWRLGHKQACAQPDHLDHIIPDHNFLFPEFEIVIETEDEIMPEVVEKEDYSEIIGSMGEALEEELDSMAKHESREDKIFQKFKTQIALEPEQILRYGRGIAPIWISGENIPQEKDIPDCPCGAKRILEFQVMPQLLNYLKADRLGKSIDWGILAVFTCAESCSLGTGYTEEFVWKQDVTDTP [PDCD2]
melting temperature ([1]; cell cycle stage: G1/S): 48.5 °C
melting temperature ([1]; cell cycle stage: mitosis): 48.3 °C
solubility in G1/S (log2) [2]: -0.116
solubility change mitosis (log2) [3]: -0.0555

MAAVFDLDLETEEGSEGEGEPELSPADACPLAELRAAGLEPVGHYEEVELTETSVNVGPERIGPHCFELLRVLGKGGYGKVFQVRKVQGTNLGKIYAMKVLRKAKIVRNAKDTAHTRAERNILESVKHPFIVELAYAFQTGGKLYLILECLSGGELFTHLEREGIFLEDTACFYLAEITLALGHLHSQGIIYRDLKPENIMLSSQGHIKLTDFGLCKESIHEGAVTHTFCGTIEYMAPEILVRSGHNRAVDWWSLGALMYDMLTGSPPFTAENRKKTMDKIIRGKLALPPYLTPDARDLVKKFLKRNPSQRIGGGPGDAADVQRHPFFRHMNWDDLLAWRVDPPFRPCLQSEEDVSQFDTRFTRQTPVDSPDDTALSESANQAFLGFTYVAPSVLDSIKEGFSFQPKLRSPRRLNSSPRAPVSPLKFSPFEGFRPSPSLPEPTELPLPPLLPPPPPSTTAPLPIRPPSGTKKSKRGRGRPGR [RPS6KB2]
melting temperature ([1]; cell cycle stage: G1/S): 51.3 °C
melting temperature ([1]; cell cycle stage: mitosis): 50.9 °C
solubility in G1/S (log2) [2]: -0.0277
solubility change mitosis (log2) [3]: 0.0325

TOPBP1
melting temperature ([1]; cell cycle stage: G1/S): 46.7 °C
melting temperature ([1]; cell cycle stage: mitosis): 49.1 °C
solubility in G1/S (log2) [2]: -0.153
solubility change mitosis (log2) [3]: -0.0346

MSEAYFRVESGALGPEENFLSLDDILMSHEKLPVRTETAMPRLGAFFLERSAGAETDNAVPQGSKLELPLWLAKGLFDNKRRILSVELPKIYQEGWRTVFSADPNVVDLHKMGPHFYGFGSQLLHFDSPENADISQSLLQTFIGRFRRIMDSSQNAYNEDTSALVARLDEMERGLFQTGQKGLNDFQCWEKGQASQITASNLVQNYKKRKFTDMED [GINS3]
melting temperature ([1]; cell cycle stage: G1/S): 51.7 °C
melting temperature ([1]; cell cycle stage: mitosis): 51.7 °C
solubility in G1/S (log2) [2]: 0.471
solubility change mitosis (log2) [3]: 0.225

MNRPAPVEISYENMRFLITHNPTNATLNKFTEELKKYGVTTLVRVCDATYDKAPVEKEGIHVLDWPFDDGAPPPNQIVDDWLNLLKTKFREEPGCCVAVHCVAGLGRAPVLVALALIECGMKYEDAVQFIRQKRRGAFNSKQLLYLEKYRPKMRLRFRDTNGHCCVQ [PTP4A2]
melting temperature ([1]; cell cycle stage: G1/S): 53.7 °C
melting temperature ([1]; cell cycle stage: mitosis): 54.1 °C
solubility in G1/S (log2) [2]: -0.226
solubility change mitosis (log2) [3]: -0.087

MGREFGNLTRMRHVISYSLSPFEQRAYPHVFTKGIPNVLRRIRESFFRVVPQFVVFYLIYTWGTEEFERSKRKNPAAYENDK [UQCRQ]
melting temperature ([1]; cell cycle stage: G1/S): 53.1 °C
melting temperature ([1]; cell cycle stage: mitosis): 51.8 °C
solubility in G1/S (log2) [2]: -0.497
solubility change mitosis (log2) [3]: -0.186

MAHRLQIRLLTWDVKDTLLRLRHPLGEAYATKARAHGLEVEPSALEQGFRQAYRAQSHSFPNYGLSHGLTSRQWWLDVVLQTFHLAGVQDAQAVAPIAEQLYKDFSHPCTWQVLDGAEDTLRECRTRGLRLAVISNFDRRLEGILGGLGLREHFDFVLTSEAAGWPKPDPRIFQEALRLAHMEPVVAAHVGDNYLCDYQGPRAVGMHSFLVVGPQALDPVVRDSVPKEHILPSLAHLLPALDCLEGSTPGL [HDHD3]
melting temperature ([1]; cell cycle stage: G1/S): 53.9 °C
melting temperature ([1]; cell cycle stage: mitosis): 54.8 °C
solubility in G1/S (log2) [2]: 0.0599
solubility change mitosis (log2) [3]: 0.0289

MMFRSDRMWSCHWKWKPSPLLFLFALYIMCVPHSVWGCANCRVVLSNPSGTFTSPCYPNDYPNSQACMWTLRAPTGYIIQITFNDFDIEEAPNCIYDSLSLDNGESQTKFCGATAKGLSFNSSANEMHVSFSSDFSIQKKGFNASYIRVAVSLRNQKVILPQTSDAYQVSVAKSISIPELSAFTLCFEATKVGHEDSDWTAFSYSNASFTQLLSFGKAKSGYFLSISDSKCLLNNALPVKEKEDIFAESFEQLCLVWNNSLGSIGVNFKRNYETVPCDSTISKVIPGNGKLLLGSNQNEIVSLKGDIYNFRLWNFTMNAKILSNLSCNVKGNVVDWQNDFWNIPNLALKAESNLSCGSYLIPLPAAELASCADLGTLCQATVNSPSTTPPTVTTNMPVTNRIDKQRNDGIIYRISVVIQNILRHPEVKVQSKVAEWLNSTFQNWNYTVYVVNISFHLSAGEDKIKVKRSLEDEPRLVLWALLVYNATNNTNLEGKIIQQKLLKNNESLDEGLRLHTVNVRQLGHCLAMEEPKGYYWPSIQPSEYVLPCPDKPGFSASRICFYNATNPLVTYWGPVDISNCLKEANEVANQILNLTADGQNLTSANITNIVEQVKRIVNKEENIDITLGSTLMNIFSNILSSSDSDLLESSSEALKTIDELAFKIDLNSTSHVNITTRNLALSVSSLLPGTNAISNFSIGLPSNNESYFQMDFESGQVDPLASVILPPNLLENLSPEDSVLVRRAQFTFFNKTGLFQDVGPQRKTLVSYVMACSIGNITIQNLKDPVQIKIKHTRTQEVHHPICAFWDLNKNKSFGGWNTSGCVAHRDSDASETVCLCNHFTHFGVLMDLPRSASQLDARNTKVLTFISYIGCGISAIFSAATLLTYVAFEKLRRDYPSKILMNLSTALLFLNLLFLLDGWITSFNVDGLCIAVAVLLHFFLLATFTWMGLEAIHMYIALVKVFNTYIRRYILKFCIIGWGLPALVVSVVLASRNNNEVYGKESYGKEKGDEFCWIQDPVIFYVTCAGYFGVMFFLNIAMFIVVMVQICGRNGKRSNRTLREEVLRNLRSVVSLTFLLGMTWGFAFFAWGPLNIPFMYLFSIFNSLQGLFIFIFHCAMKENVQKQWRQHLCCGRFRLADNSDWSKTATNIIKKSSDNLGKSLSSSSIGSNSTYLTSKSKSSSTTYFKRNSHTDNVSYEHSFNKSGSLRQCFHGQVLVKTGPC [GPR126]
solubility in G1/S (log2) [2]: -0.117
solubility change mitosis (log2) [3]: -0.0428

CSNK1G1
solubility in G1/S (log2) [2]: -0.3
solubility change mitosis (log2) [3]: 0.0486

MLRLLASGCARGPGPGVGARPAAGLFHPGRRQSRQASDAPRNQPPSPEFVARPVGVCSMMRLPVQTSPEGLDAAFIGVPLDTGTSNRPGARFGPRRIREESVMLGTVNPSTGALPFQSLMVADLGDVNVNLYNLQDSCRRIQEAYEKIVAAGCIPLTLGGDHTITYPILQAMAKKHGPVGLLHVDAHTDTTDKALGEKLYHGAPFRRCVDEGLLDCKRVVQIGIRGSSTTLDPYRYNRSQGFRVVLAEDCWMKSLVPLMGEVRQQMGGKPIYISFDIDALDPAYAPGTGTPEIAGLTPSQALEIIRGCQGLNVMGCDLVEVSPPYDLSGNTALLAANLLFEMLCALPKVTTV [AGMAT]
solubility in G1/S (log2) [2]: 0.243
solubility change mitosis (log2) [3]: 0.0673

MAPPAGGAAAAASDLGSAAVLLAVHAAVRPLGAGPDAEAQLRRLQLSADPERPGRFRLELLGAGPGAVNLEWPLESVSYTIRGPTQHELQPPPGGPGTLSLHFLNPQEAQRWAVLVRGATVEGQNGSKSNSPPALGPEACPVSLPSPPEASTLKGPPPEADLPRSPGNLTEREELAGSLARAIAGGDEKGAAQVAAVLAQHRVALSVQLQEACFPPGPIRLQVTLEDAASAASAASSAHVALQVHPHCTVAALQEQVFSELGFPPAVQRWVIGRCLCVPERSLASYGVRQDGDPAFLYLLSAPREAPATGPSPQHPQKMDGELGRLFPPSLGLPPGPQPAASSLPSPLQPSWSCPSCTFINAPDRPGCEMCSTQRPCTWDPLAAAST [SHARPIN]
solubility in G1/S (log2) [2]: 0.196
solubility change mitosis (log2) [3]: -0.0725

MDTAEEDICRVCRSEGTPEKPLYHPCVCTGSIKFIHQECLVQWLKHSRKEYCELCKHRFAFTPIYSPDMPSRLPIQDIFAGLVTSIGTAIRYWFHYTLVAFAWLGVVPLTACRIYKCLFTGSVSSLLTLPLDMLSTENLLADCLQGCFVVTCTLCAFISLVWLREQIVHGGAPIWLEHAAPPFNAAGHHQNEAPAGGNGAENVAADQPANPPAENAVVGENPDAQDDQAEEEEEDNEEEDDAGVEDAADANNGAQDDMNWNALEWDRAAEELTWERMLGLDGSLVFLEHVFWVVSLNTLFILVFAFCPYHIGHFSLVGLGFEEHVQASHFEGLITTIVGYILLAITLIICHGLATLVKFHRSRRLLGVCYIVVKVSLLVVVEIGVFPLICGWWLDICSLEMFDATLKDRELSFQSAPGTTMFLHWLVGMVYVFYFASFILLLREVLRPGVLWFLRNLNDPDFNPVQEMIHLPIYRHLRRFILSVIVFGSIVLLMLWLPIRIIKSVLPNFLPYNVMLYSDAPVSELSLELLLLQVVLPALLEQGHTRQWLKGLVRAWTVTAGYLLDLHSYLLGDQEENENSANQQVNNNQHARNNNAIPVVGEGLHAAHQAILQQGGPVGFQPYRRPLNFPLRIFLLIVFMCITLLIASLICLTLPVFAGRWLMSFWTGTAKIHELYTAACGLYVCWLTIRAVTVMVAWMPQGRRVIFQKVKEWSLMIMKTLIVAVLLAGVVPLLLGLLFELVIVAPLRVPLDQTPLFYPWQDWALGVLHAKIIAAITLMGPQWWLKTVIEQVYANGIRNIDLHYIVRKLAAPVISVLLLSLCVPYVIASGVVPLLGVTAEMQNLVHRRIYPFLLMVVVLMAILSFQVRQFKRLYEHIKNDKYLVGQRLVNYERKSGKQGSSPPPPQSSQE [MARCH6]
solubility in G1/S (log2) [2]: -0.397
solubility change mitosis (log2) [3]: 0.155
